Assays:
[1] = tested on: P. aeruginosa; assay: Minimal inhibitory concentration (MIC), modified CLSI broth microdilution in CAA or CAA/HuS; assay type: cell-based, Pseudomonas aeruginosa; conditions: for MIC (μg/mL) in CAA: CAA media; for MIC (μg/mL in CAA/HuS) / MIC value in CAA/HuS: CAA supplemented with 25% human serum
[2] = tested on: P. aeruginosa strain ATCC 17647; assay: Minimal Biofilm Eradicating Concentration (MBEC), Calgary Biofilm Device; assay type: cell-based, Pseudomonas aeruginosa; conditions: 24 h biofilm, 24 h treatment; minimum concentration removing >95% of biofilm biomass (crystal violet)
Source text: All samples were examined in triplicate.

[3] = tested on: P. aeruginosa; assay: Time-kill assay of GN lysin activity; assay type: cell-based, Pseudomonas aeruginosa; conditions: lysin 10 μg/mL, T = 0 7.8; for Log10 CFU/mL T = 3 hr: buffer control 7.2, limit of detection 3.7; for Log10 CFU/mL T = l hr: buffer control 7.7
Description: All treatments were incubated at 37° C. with aeration.

[4] = tested on: carbapenem-resistant clinical strain, WC-452; assay: Checkerboard assay to examine synergy with antibiotics in CAA/HuS; assay type: cell-based, P. aeruginosa; conditions: for FICI, Amikacin: lysin + amikacin; for FICI, Azithromycin: lysin + azithromycin; for FICI, Aztreonam: lysin + aztreonam; for FICI, Ciprofloxacin: lysin + ciprofloxacin; for FICI, Colistin: lysin + colistin; for FICI, Fosfomycin: lysin + fosfomycin; for FICI, Gentamicin: lysin + gentamicin; for FICI, Imipenem: lysin + imipenem; for FICI, Meropenem: lysin + meropenem; for FICI, Piperacillin: lysin + piperacillin; for FICI, Rifampicin: lysin + rifampicin; for FICI, Tobramycin: lysin + tobramycin
Description: Fractional inhibitor concentration index (FICI) values were determined for all combinations; values of <0.5 indicate synergy.
(§1) The checkerboard assays is based on a modification of the CLSI method for MIC determination by broth microdilution (26, 29). Checkerboards were constructed by first preparing columns of a 96-well polypropylene microtiter plate, in which each well had the same amount of antibiotic diluted 2-fold along the horizontal axis. […] Summation fractional inhibitory concentrations (ΣFICs) were calculated for each drug and the minimum ΣFIC value (ΣFICmin) was used to determine synergy. ΣFICs were calculated as follows: ΣFIC=FIC A+FIC B, where FIC A is the MIC of each antibiotic in the combination/MIC of each antibiotic alone, and FIC B is the MIC of each GN lysin in the combination/MIC of each GN lysin alone. The combination is considered synergistic when the ΣFIC is ≤0.5, strongly additive when the ΣFIC is >0.5 to <1, additive with the ΣFIC is 1−<2, and antagonistic when the ΣFIC is ≥2.

[5] = tested on: carbapenem-resistant P. aeruginosa strains; assay: Resensitization of carbapenem-resistant clinical strains using carbapenems in combination with lysins; assay type: cell-based
Description: as §1
Up to seven carbapenem-resistant isolates were assessed. […] See Clinical and Laboratory Standards Institute (CLSI), CLSI. […] M100 Performance Standards for Antimicrobial Susceptibility Testing; 29th Edition. Clinical and Laboratory Standards Institute, Wayne, Pa.

[6] = CAA/HuS, ‡ indicates bactericidal activity
[7] = HEPES buffer, ‡ indicates bactericidal activity

B1: GN92: Modified GN4, N-terminal peptide KFFKFFKFFK with linker, SEQ ID NO: 7 (protein)
chain: KFFKFFKFFKAGAGAGAGAGAGAGAGASMRTSQRGIDLIKSFEGLRLSAYQDSVGVWTIGYGTTRGVTRYMTITVEQAERMLSNDIQRFEPELDRLAKVPLNQNQWDALMSFVYNLGAANLASSTLLKLLNKGDYQGAADQFPRWVNAGGKRLDGLVKRRAAERALFLEPLS
[1]
  MIC (μg/mL) in CAA: 32 µg/mL
  MIC (μg/mL in CAA/HuS): 4 µg/mL
  MIC value in CAA/HuS: 4 µg/mL
[2]
  MBEC: 0.5 µg/mL
[3]; [6]
  Log10 CFU/mL T = 3 hr: <3.7‡ Log10 CFU/mL
[3]; CAA/HuS
  Log10 CFU/mL T = l hr: 6.2 Log10 CFU/mL
[3]; [7]
  Log10 CFU/mL T = 3 hr: <3.7‡ Log10 CFU/mL
  Log10 CFU/mL T = l hr: 5.7 Log10 CFU/mL
[4]
  synergy with antibiotics in the checkerboard assay: synergize with a range of antibiotics
  FICI, Amikacin: 0.375
  FICI, Azithromycin: 0.063
  FICI, Aztreonam: 0.188
  FICI, Ciprofloxacin: 0.281
  FICI, Colistin: 0.094
  FICI, Fosfomycin: 0.500
  FICI, Gentamicin: 0.375
  FICI, Imipenem: 0.125
  FICI, Meropenem: 0.375
  FICI, Piperacillin: 0.500
  FICI, Rifampicin: 0.094
  FICI, Tobramycin: 0.500

B2: GN37: Native lysin, WP_014102102.1/VanY, SEQ ID NO: 12; first disclosed in WO/2017/049233 (protein, listed as Micavibrio aeruginosavorus)
chain: MTYTLSKRSLDNLKGVHPDLVAVVHRAIQLTPVDFAVIEGLRSVSRQKELVAAGASKTMNSRHLTGHAVDLAAYVNGIRWDWPLYDAIAVAVKAAAKELGVAIVWGGDWTTFKDGPHFELDRSKYR
[1]
  MIC (μg/mL) in CAA: >128 µg/mL
  MIC (μg/mL in CAA/HuS): 32 µg/mL
  MIC value in CAA/HuS: 32 µg/mL
[2]
  MBEC: 0.25 µg/mL
[3]; [6]
  Log10 CFU/mL T = 3 hr: <3.7‡ Log10 CFU/mL
[3]; CAA/HuS
  Log10 CFU/mL T = l hr: 6.2 Log10 CFU/mL
[3]; [7]
  Log10 CFU/mL T = 3 hr: <3.7‡ Log10 CFU/mL
  Log10 CFU/mL T = l hr: 6.3 Log10 CFU/mL
[4]
  synergy with antibiotics in the checkerboard assay: synergize with a range of antibiotics
  FICI, Amikacin: 0.125
  FICI, Azithromycin: 0.188
  FICI, Aztreonam: 0.531
  FICI, Ciprofloxacin: 0.281
  FICI, Colistin: 0.156
  FICI, Fosfomycin: 0.313
  FICI, Gentamicin: 0.313
  FICI, Imipenem: 0.313
  FICI, Meropenem: 0.500
  FICI, Piperacillin: 0.375
  FICI, Rifampicin: 0.281
  FICI, Tobramycin: 0.156

B3: GN121: Modified GN37, C-terminal peptide RKKTRKRLKKIGKVLKWI, SEQ ID NO: 13 (protein)
chain: MTYTLSKRSLDNLKGVHPDLVAVVHRAIQLTPVDFAVIEGLRSVSRQKELVAAGASKTMNSRHLTGHAVDLAAYVNGIRWDWPLYDAIAVAVKAAAKELGVAIVWGGDWTTFKDGPHFELDRSKYRRKKTRKRLKKIGKVLKWI
[1]
  MIC (μg/mL) in CAA: 0.5 µg/mL
  MIC (μg/mL in CAA/HuS): 0.5 µg/mL
  MIC value in CAA/HuS: 0.5 µg/mL
[2]
  MBEC: 0.25 µg/mL
[3]; [6]
  Log10 CFU/mL T = 3 hr: <3.7‡ Log10 CFU/mL
[3]; CAA/HuS
  Log10 CFU/mL T = l hr: 7.4 Log10 CFU/mL
[3]; [7]
  Log10 CFU/mL T = 3 hr: <3.7‡ Log10 CFU/mL
  Log10 CFU/mL T = l hr: <3.7‡ Log10 CFU/mL
[4]
  synergy with antibiotics in the checkerboard assay: synergize with a range of antibiotics
  FICI, Amikacin: 0.375
  FICI, Azithromycin: 0.188
  FICI, Aztreonam: 0.625
  FICI, Ciprofloxacin: 0.313
  FICI, Colistin: 0.375
  FICI, Fosfomycin: 0.375
  FICI, Gentamicin: 0.375
  FICI, Imipenem: 0.375
  FICI, Meropenem: 0.313
  FICI, Piperacillin: 0.375
  FICI, Rifampicin: 0.313
  FICI, Tobramycin: 0.188
[5]; isolate PA19, MIC of GN121 alone (imipenem checkerboard)
  GN121 Alone: 1 µg/mL
[5]; isolate PA19, MIC of GN121 alone (meropenem checkerboard)
  GN121 Alone: 2 µg/mL
[5]; isolate PA19, MIC of GN121 in combination with imipenem
  GN121 Combination: 0.125 µg/mL
[5]; isolate PA19, MIC of GN121 in combination with meropenem
  GN121 Combination: 0.5 µg/mL
[5]; isolate PA19, imipenem + GN121
  FICI: 0.155
[5]; isolate PA19, meropenem + GN121
  FICI: 0.281
[5]; isolate PA20, MIC of GN121 alone (imipenem checkerboard)
  GN121 Alone: 1 µg/mL
[5]; isolate PA20, MIC of GN121 alone (meropenem checkerboard)
  GN121 Alone: 2 µg/mL
[5]; isolate PA20, MIC of GN121 in combination with imipenem
  GN121 Combination: 0.25 µg/mL
[5]; isolate PA20, MIC of GN121 in combination with meropenem
  GN121 Combination: 0.5 µg/mL
[5]; isolate PA20, imipenem + GN121
  FICI: 0.265
[5]; isolate PA20, meropenem + GN121
  FICI: 0.313
[5]; isolate PA21, MIC of GN121 alone (imipenem checkerboard)
  GN121 Alone: 1 µg/mL
[5]; isolate PA21, MIC of GN121 alone (meropenem checkerboard)
  GN121 Alone: 1 µg/mL
[5]; isolate PA21, MIC of GN121 in combination with imipenem
  GN121 Combination: 0.125 µg/mL
[5]; isolate PA21, MIC of GN121 in combination with meropenem
  GN121 Combination: 0.125 µg/mL
[5]; isolate PA21, imipenem + GN121
  FICI: 0.155
[5]; isolate PA21, meropenem + GN121
  FICI: 0.188
[5]; isolate PA22, MIC of GN121 alone (imipenem checkerboard)
  GN121 Alone: 2 µg/mL
[5]; isolate PA22, MIC of GN121 alone (meropenem checkerboard)
  GN121 Alone: 1 µg/mL
[5]; isolate PA22, MIC of GN121 in combination with imipenem
  GN121 Combination: 0.25 µg/mL
[5]; isolate PA22, MIC of GN121 in combination with meropenem
  GN121 Combination: 0.25 µg/mL
[5]; isolate PA22, imipenem + GN121
  FICI: 0.188
[5]; isolate PA22, meropenem + GN121
  FICI: 0.313
[5]; isolate PA23, MIC of GN121 alone (imipenem checkerboard)
  GN121 Alone: 1 µg/mL
[5]; isolate PA23, MIC of GN121 alone (meropenem checkerboard)
  GN121 Alone: 2 µg/mL
[5]; isolate PA23, MIC of GN121 in combination with imipenem
  GN121 Combination: 0.25 µg/mL
[5]; isolate PA23, MIC of GN121 in combination with meropenem
  GN121 Combination: 0.5 µg/mL
[5]; isolate PA23, imipenem + GN121
  FICI: 0.257
[5]; isolate PA23, meropenem + GN121
  FICI: 0.375
[5]; isolate PA24, MIC of GN121 alone (imipenem checkerboard)
  GN121 Alone: 1 µg/mL
[5]; isolate PA24, MIC of GN121 alone (meropenem checkerboard)
  GN121 Alone: 1 µg/mL
[5]; isolate PA24, MIC of GN121 in combination with imipenem
  GN121 Combination: 0.125 µg/mL
[5]; isolate PA24, MIC of GN121 in combination with meropenem
  GN121 Combination: 0.125 µg/mL
[5]; isolate PA24, imipenem + GN121
  FICI: 0.155
[5]; isolate PA24, meropenem + GN121
  FICI: 0.156
[5]; isolate WC-452, MIC of GN121 alone (meropenem checkerboard)
  GN121 Alone: 1 µg/mL
[5]; isolate WC-452, MIC of GN121 in combination with meropenem
  GN121 Combination: 0.06 µg/mL
[5]; isolate WC-452, meropenem + GN121
  FICI: 0.123
[5]; synergistic combinations with imipenem or meropenem, breakpoints ≤2 sensitive, 4 intermediate, ≥8 resistant
  resensitization of carbapenem-resistant isolates to IPM and MEM: reductions of IPM and MEM MICS to below breakpoint values

B4: GN147: Modified GN3, amino acid substitutions (R101D, R117H), SEQ ID NO: 5 (protein)
chain: MRTSQRGLSLIKSFEGLRLQAYQDSVGVWTIGYGTTRGVKAGMKISKDQAERMLLNDVQRFEPEVERLIKVPLNQDQWDALMSFTYNLGAANLESSTLRDLLNAGNYAAAAEQFPHWNKAGGQVLAGLTRRRAAERELFLGAA
[1]
  MIC (μg/mL) in CAA: 2 µg/mL
  MIC (μg/mL in CAA/HuS): 4 µg/mL
  MIC value in CAA/HuS: 4 µg/mL
[2]
  MBEC: 0.25 µg/mL
[3]; [6]
  Log10 CFU/mL T = 3 hr: 4.2‡ Log10 CFU/mL
[3]; CAA/HuS
  Log10 CFU/mL T = l hr: 6.5 Log10 CFU/mL
[3]; [7]
  Log10 CFU/mL T = 3 hr: <3.7‡ Log10 CFU/mL
  Log10 CFU/mL T = l hr: <3.7‡ Log10 CFU/mL
[4]
  synergy with antibiotics in the checkerboard assay: synergize with a range of antibiotics
  FICI, Amikacin: 0.375
  FICI, Azithromycin: 0.250
  FICI, Aztreonam: 0.188
  FICI, Ciprofloxacin: 0.281
  FICI, Colistin: 0.188
  FICI, Fosfomycin: 0.250
  FICI, Gentamicin: 0.375
  FICI, Imipenem: 0.375
  FICI, Meropenem: 0.375
  FICI, Piperacillin: 0.188
  FICI, Rifampicin: 0.281
  FICI, Tobramycin: 0.5

From patent US20220160843A1 (priority 2019, published 2022)
